Consider three molecules from article PMC8860590, “Identification, functional characterization, assembly and structure of ToxIN type III toxin–antitoxin complex from E. coli”.

The target in data set [1] is T1, ToxN (ToxNEc) (Escherichia coli strain 680, UniProt PDB:7D8O_1 1-187). Description: ITC; one-site fit; ITC: 50 mM KH2PO4 pH 7, 100 mM KCl, 15°C; 2-5 uM RNA in cell, 35-50 uM ToxN in syringe. Conditions: protein: recombinant, tags: N-terminal His6 (pCold II). (In general: ITC needs no label: the signal is the heat of the interaction.)
Data set [2] has as its target T1, ToxN (ToxNEc). In words: ITC; no appreciable heat change; ITC: 50 mM KH2PO4 pH 7, 100 mM KCl, 15°C; 2-5 uM RNA in cell, 35-50 uM ToxN in syringe. Conditions: protein: recombinant; tags: N-terminal His6 (pCold II); pseudoknot.

For the molecule GGAGGUGAUUUGCUACCUUUAAGUGCAGCUAGAA (structured_RNA) [Δ5'-ToxI], the Kd (usually the concentration at which binding is half-saturated) in data set [1] (pseudoknot with 3' single-stranded overhang) is 47.3 ± 7.4 nM.
As to GGAUUCAGGUGAUUUGCUACCUUUAAGUGCA (structured_RNA) [Δ3'-ToxI], the Kd in data set [1] (pseudoknot with 5' single-stranded overhang) came out at 243 ± 55 nM.
With GGAGGUGAUUUGCUACCUUUAAGUGCA (structured_RNA) [27mer (core pseudoknot)], in data set [2], the binding result is given as “no binding”.
